In publication PMC4223631 (Developmental cell, 2014):

Molecular target: rabbit muscle actin (filaments: ADP-F-actin or ADP•BeFx-F-actin) (rabbit, UniProt P68135 1-377)
Experiment: co-sedimentation

KD of a small fraction (~20%) of the cofilin: ~1000 nM
KD of the majority of the cofilin: ~5000 nM
B1: cofilin-2 (mouse, recombinant wild type) (natural protein)
chain: MASGVTVNDEVIKVFNDMKVRKSSTQEEIKKRKKAVLFCLSDDKRQIIVEEAKQILVGDIGDTVEDPYTSFVKLLPLNDCRYALYDATYETKESKKEDLVFIFWAPESAPLKSKMIYASSKDAIKKKFTGIKHEWQVNGLDDIKDRSTLGEKLGGSVVVSLEGKPL
